{
  "source": "patent US5371006",
  "tested_on": "NotI restriction endonuclease (Nocardia otitidis-caviarum)",
  "test": "cleavage_in_vitro",
  "conditions": "endonuclease contamination test; 200 units, 4 h, 37 C, NEBuffer 3 + BSA",
  "data": [
    {"substance": "phiX174 RFI DNA", "values": [
      {"measurement": "activity (% converted to RF II)", "result": "< 5"}
    ]}
  ]
}
